# B1: M37: human IL-3 mutant, Asp 101 replaced by Ala and Lys 116 by Val (protein, UniProt P08700 20-152, looked up, variant D101A K116V)
# Interleukin-3: APMTQTTPLKTSWVNCSNMIDEIITHLKQPPLPLLDFNNLNGEDQDILMENNLRRPNLEAFNRAVKSLQNASAIESILKNLLPCLPLATAAPTRHPIHIKAGDWNEFRRKLTFYLVTLENAQAQQTTLSLAIF
# Tests used:
# [1] = tested on: monocytes; assay: Stimulation of human monocyte adherence (51Cr adhesion assay); format: cell-based
# Protocol: (a) Monocyte purification. Monocytes were purified from the peripheral blood of normal donors, obtained from the Adelaide Red Cross Transfusion Service, as previously described (Elliott et. al., 1990, J. Immunol., 145, 167-171). In brief, mononuclear cells were prepared by centrifugation of whole blood on lymphoprep cushions (Nyegaard, Oslo, Norway) and washed twice in HBSS, 0.02% EDTA, 0.1% heat inactivated FCS (Flow Laboratories, North Ryde, Australia) and monocytes were purified in a Beckman J-6M/E elutriator using the Sanderson chamber, a flow rate of 12 ml/min and a constant rotor speed of 2050 rpm. Cells remaining in the chamber after 30 min were collected, washed twice in HBSS, and used immediately. Using these methods, monocyte purity as assessed by morphology and nonspecific-esterase staining was always >90% and usually >95%. The major contaminating cell types were lymphocytes and granulocytes (principally basophils).
# (b) Adhesion assay. Adhesion was measured by an isotopic method essentially as described (Elliott et. al., supra). In brief, purified monocytes (0.5 to 1×10^8) were resuspended in 1 ml RPMI 1640 with 0.1% FCS and antibiotics and incubated for 30 min at 37° C. with 500 μCi^51 Cr in the form of sodium chromate (Amersham International., Buckinghamshire, England). Cells were washed thrice in RPMI 1640 and resuspended in culture medium consisting of RPMI 1640, 10% FCS, antibiotics, and 0.2% sodium bicarbonate. For measurement of adhesion, 1 to 2.5×10^5 monocytes were aliquotted per well in 96-well microtitre plates (Nunc, Karnstrup, Denmark) together with stimuli or control medium to a total volume of […], and incubated for the indicated periods. […] At harvest, samples of supernatant were taken to assess spontaneous ^51 Cr release (usually <10% of cell-associated radioactivity), wells were washed three times with RPMI 1640 at 37° C., and residual adherent cells lysed in 10 mM Tris-hydrochloride, and 1% Nonident p40 detergent (Sigma). Lysates were transferred to tubes and counted in a Packard auto-gamma 5650. Percent adherence was calculated according to the formula: [formula]
# [2] = target: T1, IL-3R α chain and β chain (Homo sapiens, UniProt P26951+P32927); assay: Competition for 125I-IL-3 binding to reconstituted IL-3 high affinity receptor (α and β chains) in COS cells
# T1 construct: amplify the complete coding region of the IL-3R alpha chain; also to amplify the coding region of the IL-3R α chain; expressed in transfected cells; host or cells: COS cells (pCDM8 vector, electroporation)
# T1 sequence (P26951 19-378): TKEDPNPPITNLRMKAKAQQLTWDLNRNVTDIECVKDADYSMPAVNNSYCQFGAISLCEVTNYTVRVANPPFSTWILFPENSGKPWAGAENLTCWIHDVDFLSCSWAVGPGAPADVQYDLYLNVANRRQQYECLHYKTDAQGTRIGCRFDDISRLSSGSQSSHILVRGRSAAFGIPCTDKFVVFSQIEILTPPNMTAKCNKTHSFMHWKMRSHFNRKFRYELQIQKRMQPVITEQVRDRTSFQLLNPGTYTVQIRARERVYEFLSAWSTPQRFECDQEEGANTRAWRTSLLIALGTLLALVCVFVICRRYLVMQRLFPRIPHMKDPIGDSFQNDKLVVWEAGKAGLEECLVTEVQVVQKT
# T1 sequence (P32927 17-897): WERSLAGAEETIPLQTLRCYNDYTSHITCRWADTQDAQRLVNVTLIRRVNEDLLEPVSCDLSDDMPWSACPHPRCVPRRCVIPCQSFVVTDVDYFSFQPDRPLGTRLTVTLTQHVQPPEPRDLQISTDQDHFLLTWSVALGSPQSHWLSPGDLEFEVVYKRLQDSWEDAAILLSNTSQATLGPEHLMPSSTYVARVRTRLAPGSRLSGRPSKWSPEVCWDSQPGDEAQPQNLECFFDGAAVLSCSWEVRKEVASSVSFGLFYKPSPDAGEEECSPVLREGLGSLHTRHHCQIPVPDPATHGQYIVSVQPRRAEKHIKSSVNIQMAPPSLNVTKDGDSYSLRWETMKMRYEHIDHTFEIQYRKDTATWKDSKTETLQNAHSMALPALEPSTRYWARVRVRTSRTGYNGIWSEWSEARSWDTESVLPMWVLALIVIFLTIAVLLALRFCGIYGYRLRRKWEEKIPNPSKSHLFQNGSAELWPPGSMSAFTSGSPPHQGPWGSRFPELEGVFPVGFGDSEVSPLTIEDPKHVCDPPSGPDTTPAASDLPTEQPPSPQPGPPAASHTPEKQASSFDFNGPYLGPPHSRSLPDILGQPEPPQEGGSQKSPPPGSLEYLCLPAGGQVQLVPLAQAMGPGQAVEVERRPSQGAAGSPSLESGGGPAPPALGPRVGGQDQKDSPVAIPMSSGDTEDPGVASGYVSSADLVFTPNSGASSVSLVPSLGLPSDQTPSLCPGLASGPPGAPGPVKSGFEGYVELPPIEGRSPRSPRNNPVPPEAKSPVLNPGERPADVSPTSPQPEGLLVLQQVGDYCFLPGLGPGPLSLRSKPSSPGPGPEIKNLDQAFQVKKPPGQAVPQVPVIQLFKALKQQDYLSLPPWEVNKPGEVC
# Excerpt: PolyA+ RNA was isolated from the human cord blood cell line KMT2. Oligo dT primed double stranded cDNA was synthesised and used as template for PCR amplification. The PCR primers were designed to amplify the complete coding region of the IL-3R alpha chain and also to amplify the coding region of the […]. The PCR products were cloned into the vector pGEM-2 for sequence verification, and then into the eukaryotic expression vector, pCDM8. The […]-containing plasmid was transfected into COS cells by electroporation, either on its own or in conjunction with the […], and after two days the cells were used for binding studies.
molecule,measurement,setting,value
B1,stimulation of monocyte adherence,[1]; FIG. 3,more potent than the wild type IL-3
same,"Relative biological activity, MONOCYTE",[1]; concentration of IL-3 mutant giving 50% of biological activity compared to that of wild type IL-3,2100
same,fold higher affinity than wild type IL-3,"[2]; COS cells transfected with IL-3R α chain and β chain cDNAs, E. coli produced protein",15 fold
same,binding to cotransfected α and β chains,[2]; FIG. 7,higher affinity

# From US5591427A, “Human Interleukin-3(Il-3) variants and their use to promote or antagonize IL-3-mediated processes” (Medvet Science Pty. Ltd., priority 1979, dated 1997)
